# Test results published in patent US20250332275A1, “Branched Polypeptide Carrier for Efficient Nucleic Acid Delivery and Its Variants” (SUZHOU HEALIRNA BIOTECHNOLOGY CO., LTD., priority 2022, published 2025).
# Ends that are not written are not given here.
# Tested on: mRNA
# Assay: Agarose gel electrophoresis of branched polypeptide mixed with mRNA
# Format: physicochemical
# Details: 1.5% agarose, 190 V, 20 minutes
# Method: A 1.5% agarose gel was prepared by dissolving agarose in a TBE buffer using a microwave. After adding the sub-green dye, the solution was poured into the gel plate, and a comb was inserted. Polypeptide Sequences 9-12 samples were each mixed with mRNA and then mixed with the sample loading buffer in a 1:1 ratio and set aside after thorough mixing. The gel was loaded with Marker and the samples, then subjected to electrophoresis at 190 V for 20 minutes, and images were captured using a gel imaging system.
# [1] = polypeptide with mRNA at a 1:1 mass ratio
# [2] = polypeptide with mRNA at a 1:2 mass ratio
Substance,"retention of complex in sample well (mRNA encapsulation, FIG. 7) [1]","retention of complex in sample well (mRNA encapsulation, FIG. 7) [2]"
"K(LAALAALAALAALAALAALAAC)KKKK(LAALAALAALAALAALAALAAC) (chain 1 KKKKK; chain 2 CAALAALAALAALAALAALAAL; also: branched: C-termini of two chain 2 copies amide-linked to side chains of Lys1, Lys5 of chain 1) [Polypeptide Sequence 9]",remained within the sample wells,remained within the sample wells
"K(LAALAALAALAALAAC)KK(KDKDKDKDKDKD)KK(KDKDKDKDKDKD)KK(LAALAALAALAALAAC) (chain 1 KKKKKKK; chain 2 CAALAALAALAALAAL; chain 3 DKDKDKDKDKDK; also: branched: C-termini of two chain 2 copies amide-linked to side chains of Lys1, Lys7 of chain 1, C-termini of two chain 3 copies amide-linked to side chains of Lys3, Lys5 of chain 1) [Polypeptide Sequence 11]",remained within the sample wells,remained within the sample wells
"K(LAALAALAALAALAALAALAAC)KK(KSKKSKKSKKSKKSK)KK(LAALAALAALAALAALAALAAC) (chain 1 KKKKK; chain 2 CAALAALAALAALAALAALAAL; also: branched: C-termini of two chain 2 copies amide-linked to side chains of Lys1, Lys5 of chain 1, C-terminus of chain 3 amide-linked to side chain of Lys3 of chain 1) [Polypeptide Sequence 10]",remained within the sample wells,remained within the sample wells
"K(LAALAALAALAALAA)KK(KSKKSKKSKC)KK(LAALAALAALAALAA)KK(KSKKSKKSKC)KK(LAALAALAALAALAA) (chain 1 KKKKKKKKK; chain 2 AALAALAALAALAAL; chain 3 CKSKKSKKSK; also: branched: C-termini of three chain 2 copies amide-linked to side chains of Lys1, Lys5, Lys9 of chain 1, C-termini of two chain 3 copies amide-linked to side chains of Lys3, Lys7 of chain 1) [Polypeptide Sequence 12]",remained within the sample wells,remained within the sample wells
